The source of these data is patent US20150344570A1 (published 2015).

To fix the notation:
T1: FcγRIIb extracellular domain with C-terminal His tag (human, UniProt P31994 43-217)
T1 construct: extracellular domain; also called FcgRIIb; 2b
T1 sequence (looked up): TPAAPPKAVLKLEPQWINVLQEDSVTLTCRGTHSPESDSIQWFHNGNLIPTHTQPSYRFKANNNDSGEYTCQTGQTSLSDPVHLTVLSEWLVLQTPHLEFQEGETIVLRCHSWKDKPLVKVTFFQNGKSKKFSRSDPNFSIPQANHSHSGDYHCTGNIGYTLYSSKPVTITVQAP

B1: GpH7-A5/GpH7-B3 variant P331_06M/GpL16-k0 (antibody, human IgG1, kappa)
heavy 1: not shown
heavy 2: not shown
light: DIVMTQSPLSLPVTPGEPASISCQASESLVHSNRNTYLHWYLQKPGQSPQLLIYKVSNRFSGVPDRFSGSGSGTDFTLKISRVEAEDVGVYYCSQNTHVPPTFGQGTKVEIERTVAAPSVFIFPPSDEQLKSGTASVVCLLNNFYPREAKVQWKVDNALQSGNSQESVTEQDSKDSTYSLSSTLTLSKADYEKHKVYACEVTHQGLSSPVTKSFNRGEC
notes: also called He Ab P331_06M
B2: GpH7-A5/GpH7-B3 variant S239_05P/GpL16-k0 (antibody, human IgG1, kappa)
heavy 1: not shown
heavy 2: not shown
light: B1 light
notes: also called He Ab S239_05P
B3: GpH7-A5/GpH7-B3 variant S267_19Q/GpL16-k0 (antibody, human IgG1, kappa)
heavy 1: not shown
heavy 2: not shown
light: B1 light
notes: also called He Ab S267_19Q
B4: GpH7-A5/GpH7-B3 variant S337_07I/GpL16-k0 (antibody, human IgG1, kappa)
heavy 1: not shown
heavy 2: not shown
light: B1 light
notes: also called He Ab S337_07I
B5: GpH7-A5/GpH7-B3 variant S324_06M/GpL16-k0 (antibody, human IgG1, kappa)
heavy 1: not shown
heavy 2: not shown
light: B1 light
notes: also called He Ab S324_06M
B6: GpH7-A5/GpH7-B3 variant S239_10E/GpL16-k0 (antibody, human IgG1, kappa)
heavy 1: not shown
heavy 2: not shown
light: B1 light
notes: also called He Ab S239_10E
B7: GpH7-A5/GpH7-B3 variant P331_16H/GpL16-k0 (antibody, human IgG1, kappa)
heavy 1: not shown
heavy 2: not shown
light: B1 light
notes: also called He Ab P331_16H
B8: GpH7-A5/GpH7-B3 variant S337_15Y/GpL16-k0 (antibody, human IgG1, kappa)
heavy 1: not shown
heavy 2: not shown
light: B1 light
notes: also called He Ab S337_15Y
B9: GpH7-A5/GpH7-B3 variant S337_18N/GpL16-k0 (antibody, human IgG1, kappa)
heavy 1: not shown
heavy 2: not shown
light: B1 light
notes: also called He Ab S337_18N
B10: GpH7-A5/GpH7-B3 variant P331_10E/GpL16-k0 (antibody, human IgG1, kappa)
heavy 1: not shown
heavy 2: not shown
light: B1 light
notes: also called He Ab P331_10E
B11: GpH7-A5/GpH7-B3 variant P331_07I/GpL16-k0 (antibody, human IgG1, kappa)
heavy 1: not shown
heavy 2: not shown
light: B1 light
notes: also called He Ab P331_07I
B12: GpH7-A5/GpH7-B3 variant S267_06M/GpL16-k0 (antibody, human IgG1, kappa)
heavy 1: not shown
heavy 2: not shown
light: B1 light
notes: also called He Ab S267_06M
B13: GpH7-A5/GpH7-B3 variant P331_20W/GpL16-k0 (antibody, human IgG1, kappa)
heavy 1: not shown
heavy 2: not shown
light: B1 light
notes: also called He Ab P331_20W
B14: GpH7-A5/GpH7-B3 variant S337_08L/GpL16-k0 (antibody, human IgG1, kappa)
heavy 1: not shown
heavy 2: not shown
light: B1 light
notes: also called He Ab S337_08L
B15: GpH7-A5/GpH7-B3 variant S239_06M/GpL16-k0 (antibody, human IgG1, kappa)
heavy 1: not shown
heavy 2: not shown
light: B1 light
notes: also called He Ab S239_06M
B16: GpH7-A5/GpH7-B3 variant S337_16H/GpL16-k0 (antibody, human IgG1, kappa)
heavy 1: not shown
heavy 2: not shown
light: B1 light
notes: also called He Ab S337_16H
B17: GpH7-A5/GpH7-B3 variant S337_20W/GpL16-k0 (antibody, human IgG1, kappa)
heavy 1: not shown
heavy 2: not shown
light: B1 light
notes: also called He Ab S337_20W
B18: GpH7-A5/GpH7-B3 variant S298_06M/GpL16-k0 (antibody, human IgG1, kappa)
heavy 1: not shown
heavy 2: not shown
light: B1 light
notes: also called He Ab S298_06M
B19: GpH7-A5/GpH7-B3 variant S239_03V/GpL16-k0 (antibody, human IgG1, kappa)
heavy 1: not shown
heavy 2: not shown
light: B1 light
notes: also called He Ab S239_03V
B20: GpH7-A5/GpH7-B3 variant S267_01G/GpL16-k0 (antibody, human IgG1, kappa)
heavy 1: not shown
heavy 2: not shown
light: B1 light
notes: also called He Ab S267_01G
B21: GpH7-A5/GpH7-B3 variant P331_15Y/GpL16-k0 (antibody, human IgG1, kappa)
heavy 1: not shown
heavy 2: not shown
light: B1 light
notes: also called He Ab P331_15Y

In the experiment the target is T1, FcγRIIb extracellular domain with …. As to the kind of experiment: SPR (Biacore), relative binding.
As to B1, the He/Con_2b was 102 % of HeCon Ab GpH7-A5/GpH7-B3/GpL16-k0.
For B2, the He/Con_2b was 102 % of HeCon Ab GpH7-A5/GpH7-B3/GpL16-k0.
For B3, the He/Con_2b was 218 % of HeCon Ab GpH7-A5/GpH7-B3/GpL16-k0.
B4: the He/Con_2b is 104 % of HeCon Ab GpH7-A5/GpH7-B3/GpL16-k0.
Next, B5: 112 % of HeCon Ab GpH7-A5/GpH7-B3/GpL16-k0.
The figure for B6 is 181 % of HeCon Ab GpH7-A5/GpH7-B3/GpL16-k0.
Consider B7, for which the He/Con_2b is 116 % of HeCon Ab GpH7-A5/GpH7-B3/GpL16-k0.
The figure for B8 is 100 % of HeCon Ab GpH7-A5/GpH7-B3/GpL16-k0; for B9 it is 103 % of HeCon Ab GpH7-A5/GpH7-B3/GpL16-k0; for B10 it is 116 % of HeCon Ab GpH7-A5/GpH7-B3/GpL16-k0.
For B11, the He/Con_2b was 114 % of HeCon Ab GpH7-A5/GpH7-B3/GpL16-k0.
Next, B12: 210 % of HeCon Ab GpH7-A5/GpH7-B3/GpL16-k0; B13: 111 % of HeCon Ab GpH7-A5/GpH7-B3/GpL16-k0.
Take B14: the He/Con_2b was 100 % of HeCon Ab GpH7-A5/GpH7-B3/GpL16-k0.
With B15, the He/Con_2b was 101 % of HeCon Ab GpH7-A5/GpH7-B3/GpL16-k0.
The figure for B16 is 105 % of HeCon Ab GpH7-A5/GpH7-B3/GpL16-k0; for B17 it is 109 % of HeCon Ab GpH7-A5/GpH7-B3/GpL16-k0.
The figure for B18 is 102 % of HeCon Ab GpH7-A5/GpH7-B3/GpL16-k0; for B19 it is 108 % of HeCon Ab GpH7-A5/GpH7-B3/GpL16-k0.
On to B20, for which the He/Con_2b was 105 % of HeCon Ab GpH7-A5/GpH7-B3/GpL16-k0.
With B21, the He/Con_2b was 114 % of HeCon Ab GpH7-A5/GpH7-B3/GpL16-k0.
